Drawing on patent US20190000928A1, this text covers GLP-2R (EC50, nM); CRE luciferase reporter in HEK293-GLP-2R-CRE cells, GLP-1R (EC50, nM); CRE luciferase reporter in HEK293-GLP-1R-CRE cells and GCGR (EC50, nM); CRE luciferase reporter in HEK293-GCGR-CRE cells for two molecules.

Positions of bridges follow the written chain, without caps; N, C: chain ends. Non-standard residues stand in square brackets, D forms with d. No end group written: not given here. L5 = not defined here; L6 = not defined here

Experiment in all cases: cell-based or functional assay
Assay [1] addresses human glucagon-like peptide 2 receptor (GLP-2R) (human) (UniProt O95838).
Assay [2] concerns the target human glucagon-like peptide 1 receptor (GLP-1R) (human) (UniProt P43220).
In assay [3] the target is human glucagon receptor (GCGR) (human) (UniProt P47871).
human glucagon receptor (GCGR) (human), sequence (P47871 26-477): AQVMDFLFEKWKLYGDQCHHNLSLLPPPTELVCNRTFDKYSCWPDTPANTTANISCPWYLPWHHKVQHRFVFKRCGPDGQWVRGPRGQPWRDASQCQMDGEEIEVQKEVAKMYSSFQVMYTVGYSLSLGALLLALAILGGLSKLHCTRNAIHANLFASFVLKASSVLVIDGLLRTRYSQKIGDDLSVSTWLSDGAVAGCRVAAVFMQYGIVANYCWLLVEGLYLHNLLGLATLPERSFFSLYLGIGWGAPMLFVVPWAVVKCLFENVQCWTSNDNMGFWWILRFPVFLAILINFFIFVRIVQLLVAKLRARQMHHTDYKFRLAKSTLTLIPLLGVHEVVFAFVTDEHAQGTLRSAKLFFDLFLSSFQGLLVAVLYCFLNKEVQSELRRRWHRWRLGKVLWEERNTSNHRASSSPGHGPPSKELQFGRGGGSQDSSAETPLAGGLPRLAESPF

human glucagon-like peptide 2 receptor (GLP-2R) (human), sequence (O95838 whole entry): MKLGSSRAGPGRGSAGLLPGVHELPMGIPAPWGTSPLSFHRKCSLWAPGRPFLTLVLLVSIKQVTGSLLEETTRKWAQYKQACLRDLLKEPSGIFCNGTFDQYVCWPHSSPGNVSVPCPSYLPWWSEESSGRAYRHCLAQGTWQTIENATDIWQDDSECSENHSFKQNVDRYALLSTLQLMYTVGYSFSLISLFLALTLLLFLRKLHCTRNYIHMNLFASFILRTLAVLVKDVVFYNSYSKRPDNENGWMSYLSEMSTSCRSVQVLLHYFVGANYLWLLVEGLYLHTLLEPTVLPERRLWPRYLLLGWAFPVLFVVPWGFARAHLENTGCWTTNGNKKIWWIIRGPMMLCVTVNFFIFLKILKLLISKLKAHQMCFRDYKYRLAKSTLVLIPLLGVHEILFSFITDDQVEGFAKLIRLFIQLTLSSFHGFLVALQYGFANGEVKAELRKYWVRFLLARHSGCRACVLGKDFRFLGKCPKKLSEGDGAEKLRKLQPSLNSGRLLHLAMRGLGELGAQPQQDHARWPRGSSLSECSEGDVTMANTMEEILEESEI
human glucagon-like peptide 1 receptor (GLP-1R) (human), sequence (P43220 24-463): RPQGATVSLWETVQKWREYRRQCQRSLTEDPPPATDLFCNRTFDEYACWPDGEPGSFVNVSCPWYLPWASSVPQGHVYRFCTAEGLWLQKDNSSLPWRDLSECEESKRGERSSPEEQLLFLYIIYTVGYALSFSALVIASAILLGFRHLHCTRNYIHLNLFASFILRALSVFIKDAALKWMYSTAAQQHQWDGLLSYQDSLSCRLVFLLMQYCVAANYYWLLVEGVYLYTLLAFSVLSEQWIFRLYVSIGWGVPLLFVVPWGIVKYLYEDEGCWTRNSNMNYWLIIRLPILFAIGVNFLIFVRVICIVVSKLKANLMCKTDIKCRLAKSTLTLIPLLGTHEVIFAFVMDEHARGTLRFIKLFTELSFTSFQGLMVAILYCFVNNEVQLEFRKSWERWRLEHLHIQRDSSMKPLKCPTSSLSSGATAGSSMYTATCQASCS

B1: mTA 7: GLP-2 (G) and L6 (peptide)
chain: HGDGSFSDEMKTILDNLKARDFINWLIQTKITD
modifications: linker 11-18 via L6; reading uncertain; also: fatty acid attached to the staple, identity not given here
For B1, the GLP-2R (EC50, nM); CRE luciferase reporter in HEK293-GLP-2R-CRE cells in assay [1] was 0.068 nM.

B2: mTA 6: GLP-1/Glucagon (D) and L5 (peptide)
chain: H[dS]QGTFTSDYSKYLDEKAAKEFIKWLLNGGPSSGAPPPS
modifications: linker 17-24 via L5; reading uncertain; also: fatty acid attached to the staple, identity not given here, printed as HsQGTFTSDYSKYLDEXAAKEFIXWLLNGGPSSGAPPPS
The molecule B2 yielded a GLP-1R (EC50, nM); CRE luciferase reporter in HEK293-GLP-1R-CRE cells in assay [2] of 0.03 nM. This molecule displayed a GCGR (EC50, nM); CRE luciferase reporter in HEK293-GCGR-CRE cells in assay [3] of 0.62 nM.
